Reference: article PMC2805030 (2010)

Target: T1, RXRα LBD 226-462 (Homo sapiens, UniProt P19793)
T1 chain: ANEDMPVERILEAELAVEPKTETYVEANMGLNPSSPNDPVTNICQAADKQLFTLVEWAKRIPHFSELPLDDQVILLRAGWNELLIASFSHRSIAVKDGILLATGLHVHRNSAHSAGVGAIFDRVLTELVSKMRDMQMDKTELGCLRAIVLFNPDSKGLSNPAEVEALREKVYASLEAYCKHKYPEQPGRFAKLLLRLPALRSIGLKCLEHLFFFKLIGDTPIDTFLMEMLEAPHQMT
Test: sedimentation equilibrium analytical ultracentrifugation

- Kd: 832 nM
B1: RXRα LBD 226-462 (protein)
chain: ANEDMPVERILEAELAVEPKTETYVEANMGLNPSSPNDPVTNICQAADKQLFTLVEWAKRIPHFSELPLDDQVILLRAGWNELLIASFSHRSIAVKDGILLATGLHVHRNSAHSAGVGAIFDRVLTELVSKMRDMQMDKTELGCLRAIVLFNPDSKGLSNPAEVEALREKVYASLEAYCKHKYPEQPGRFAKLLLRLPALRSIGLKCLEHLFFFKLIGDTPIDTFLMEMLEAPHQMT
modifications: fluorescein-labeled
